Patent US20190060404A1 (published 2019)
Values belong to the molecule of their own block, whether it stands above or below them.

Assays:
[1] = biological target: FGFR1-Fc (UniProt P11362); assay: SPR, FGFR1-Fc fixed on the sensor, VEGF-B167 added
[2] = biological target: human FGFR2-Fc (human) (UniProt P21802); assay: SPR, FGFR2-Fc fixed on the sensor, VEGF-B167 added
[3] = biological target: T1, VEGFR2 of C57B16 mouse retina and brain tissue (mouse, UniProt P35918 20-1345, limits assumed); assay: co-immunoprecipitation with anti-FGFR1 antibody from mouse retina and brain tissue
T1 construct: Endogenous protein in tissue lysate
Protocol: (§1) Co-immunoprecipitation assay: brain tissues and retinae of the C57B16 mice were separated, and were homogenated after added with RIPA buffer comprising protease and phosphatase inhibitor. Supernatant was obtained by centrifuging. After protein quantification, the supernatant was incubated with anti-FGFR1 antibody at 4° C. overnight. Magnetic beads combined with A/G protein were added to capture the antibody complex. 10% PAGE electrophoresis and transfer to a PVDF film were performed successively for the complex, then the complex was incubated with the primary antibody of VEGFR1, VEGFR2 or FGFR1, and was further incubated with HRP-labeled secondary antibody, ECL luminescence reagent was added to display color in the end.

[4] = biological target: T1, VEGFR2 of C57B16 mouse retina and brain …; assay: co-immunoprecipitation with anti-FGFR2 antibody from mouse brain and retinal tissue
Protocol: as §1
Co-Immunoprecipitation: brain tissue and retinae were extracted from the C57B16 mice. The C57B16 mice were intravitreally injected with BSA (500 ng/eye), FGF2 (100 ng/eye) or VEGF-B₁₆₇ (500 ng/eye), and their retinae were extracted 1 hour after the injection. The brain tissue and retinae, and the retinae from the injected C57B16 mice were treated by the operational procedure described in Embodiment 5, and incubated with anti-FGFR2 antibody for co-immunoprecipitation (with VEGFR1 or VEGFR2).

T1 sequence (P35918 20-1345 limits assumed, one chain of several): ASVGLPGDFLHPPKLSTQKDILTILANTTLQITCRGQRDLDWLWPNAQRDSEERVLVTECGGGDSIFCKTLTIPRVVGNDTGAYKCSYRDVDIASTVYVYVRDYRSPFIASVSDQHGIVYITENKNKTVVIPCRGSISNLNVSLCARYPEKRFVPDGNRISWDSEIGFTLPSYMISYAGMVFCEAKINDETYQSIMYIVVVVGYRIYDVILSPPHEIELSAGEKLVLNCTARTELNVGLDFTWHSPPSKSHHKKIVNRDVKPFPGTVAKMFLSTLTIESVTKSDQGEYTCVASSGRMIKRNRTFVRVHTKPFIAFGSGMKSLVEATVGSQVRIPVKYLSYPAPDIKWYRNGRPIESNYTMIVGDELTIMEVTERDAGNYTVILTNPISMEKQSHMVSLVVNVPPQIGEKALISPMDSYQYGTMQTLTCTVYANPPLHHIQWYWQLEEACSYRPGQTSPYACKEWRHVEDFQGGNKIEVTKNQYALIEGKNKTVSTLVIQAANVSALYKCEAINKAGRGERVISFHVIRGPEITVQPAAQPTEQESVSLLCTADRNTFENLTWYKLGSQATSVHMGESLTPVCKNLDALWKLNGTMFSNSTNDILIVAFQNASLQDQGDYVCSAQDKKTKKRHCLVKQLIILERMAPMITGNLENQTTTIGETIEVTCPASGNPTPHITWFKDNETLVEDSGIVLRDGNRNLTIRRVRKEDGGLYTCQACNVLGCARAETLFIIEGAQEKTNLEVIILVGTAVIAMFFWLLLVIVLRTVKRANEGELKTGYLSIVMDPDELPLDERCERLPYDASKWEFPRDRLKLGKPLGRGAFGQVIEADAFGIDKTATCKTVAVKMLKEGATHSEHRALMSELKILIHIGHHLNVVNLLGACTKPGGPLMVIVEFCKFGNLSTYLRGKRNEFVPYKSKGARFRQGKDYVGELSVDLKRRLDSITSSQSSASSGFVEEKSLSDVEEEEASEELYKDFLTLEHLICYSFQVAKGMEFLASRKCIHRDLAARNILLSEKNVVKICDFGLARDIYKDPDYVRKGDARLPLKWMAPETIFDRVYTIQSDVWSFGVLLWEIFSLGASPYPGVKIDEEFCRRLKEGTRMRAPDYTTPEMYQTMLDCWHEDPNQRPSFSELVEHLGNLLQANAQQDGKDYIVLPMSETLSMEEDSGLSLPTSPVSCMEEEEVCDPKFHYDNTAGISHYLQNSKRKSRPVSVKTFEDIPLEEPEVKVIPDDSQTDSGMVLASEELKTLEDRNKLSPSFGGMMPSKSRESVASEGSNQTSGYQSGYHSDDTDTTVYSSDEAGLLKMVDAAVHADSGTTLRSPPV
Chain of FGFR1-Fc (P11362 22-376 limits assumed): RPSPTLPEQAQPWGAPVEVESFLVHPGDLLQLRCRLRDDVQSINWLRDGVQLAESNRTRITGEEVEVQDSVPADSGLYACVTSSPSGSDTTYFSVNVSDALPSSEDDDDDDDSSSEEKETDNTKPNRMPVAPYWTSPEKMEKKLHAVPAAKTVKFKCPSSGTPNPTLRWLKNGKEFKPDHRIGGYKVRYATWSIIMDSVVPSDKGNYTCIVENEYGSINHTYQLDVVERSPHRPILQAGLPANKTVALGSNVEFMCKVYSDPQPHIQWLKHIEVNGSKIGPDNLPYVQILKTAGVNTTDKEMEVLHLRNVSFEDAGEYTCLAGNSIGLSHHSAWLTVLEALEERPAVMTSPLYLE

Kd [1]: 15 nM
Kd [2]: 112 nM
Molecule: VEGF-B167 (from UniProt P49765 22-207) (ligand)

binding result [3]: no binding
B1: FGFR1 of C57B16 mouse retina and brain tissue (receptor, UniProt P16092 22-822, looked up)
chain: RPAPTLPEQAQPWGVPVEVESLLVHPGDLLQLRCRLRDDVQSINWLRDGVQLVESNRTRITGEEVEVRDSIPADSGLYACVTSSPSGSDTTYFSVNVSDALPSSEDDDDDDDSSSEEKETDNTKPNRRPVAPYWTSPEKMEKKLHAVPAAKTVKFKCPSSGTPNPTLRWLKNGKEFKPDHRIGGYKVRYATWSIIMDSVVPSDKGNYTCIVENEYGSINHTYQLDVVERSPHRPILQAGLPANKTVALGSNVEFMCKVYSDPQPHIQWLKHIEVNGSKIGPDNLPYVQILKTAGVNTTDKEMEVLHLRNVSFEDAGEYTCLAGNSIGLSHHSAWLTVLEALEERPAVMTSPLYLEIIIYCTGAFLISCMLGSVIIYKMKSGTKKSDFHSQMAVHKLAKSIPLRRQVTVSADSSASMNSGVLLVRPSRLSSSGTPMLAGVSEYELPEDPRWELPRDRLVLGKPLGEGCFGQVVLAEAIGLDKDKPNRVTKVAVKMLKSDATEKDLSDLISEMEMMKMIGKHKNIINLLGACTQDGPLYVIVEYASKGNLREYLQARRPPGLEYCYNPSHNPEEQLSSKDLVSCAYQVARGMEYLASKKCIHRDLAARNVLVTEDNVMKIADFGLARDIHHIDYYKKTTNGRLPVKWMAPEALFDRIYTHQSDVWSFGVLLWEIFTLGGSPYPGVPVEELFKLLKEGHRMDKPSNCTNELYMMMRDCWHAVPSQRPTFKQLVEDLDRIVALTSNQEYLDLSIPLDQYSPSFPDTRSSTCSSGEDSVFSHEPLPEEPCLPRHPTQLANSGLKRR
notes: Endogenous protein in tissue lysate

binding result [4]: no binding
B2: FGFR2 of C57B16 mouse tissue and mouse primary SMC (receptor, UniProt P21803 22-821, looked up)
chain: RPSFSLVEDTTLEPEEPPTKYQISQPEAYVVAPGESLELQCMLKDAAVISWTKDGVHLGPNNRTVLIGEYLQIKGATPRDSGLYACTAARTVDSETWIFMVNVTDAISSGDDEDDTDSSEDVVSENRSNQRAPYWTNTEKMEKRLHACPAANTVKFRCPAGGNPTSTMRWLKNGKEFKQEHRIGGYKVRNQHWSLIMESVVPSDKGNYTCLVENEYGSINHTYHLDVVERSPHRPILQAGLPANASTVVGGDVEFVCKVYSDAQPHIQWIKHVEKNGSKNGPDGLPYLKVLKAAGVNTTDKEIEVLYIRNVTFEDAGEYTCLAGNSIGISFHSAWLTVLPAPVREKEITASPDYLEIAIYCIGVFLIACMVVTVIFCRMKTTTKKPDFSSQPAVHKLTKRIPLRRQVTVSAESSSSMNSNTPLVRITTRLSSTADTPMLAGVSEYELPEDPKWEFPRDKLTLGKPLGEGCFGQVVMAEAVGIDKDKPKEAVTVAVKMLKDDATEKDLSDLVSEMEMMKMIGKHKNIINLLGACTQDGPLYVIVEYASKGNLREYLRARRPPGMEYSYDINRVPEEQMTFKDLVSCTYQLARGMEYLASQKCIHRDLAARNVLVTENNVMKIADFGLARDINNIDYYKKTTNGRLPVKWMAPEALFDRVYTHQSDVWSFGVLMWEIFTLGGSPYPGIPVEELFKLLKEGHRMDKPTNCTNELYMMMRDCWHAVPSQRPTFKQLVEDLDRILTLTTNEEYLDLTQPLEQYSPSYPDTSSSCSSGDDSVFSPDPMPYEPCLPQYPHINGSVKT
notes: Endogenous protein in tissue lysate (co-immunoprecipitation) or on cells (proximity ligation assay)
